For the assay, the target named is T1, cnd2_schpo cnd2 (UniProt Q9Y7R3).
T1 sequence: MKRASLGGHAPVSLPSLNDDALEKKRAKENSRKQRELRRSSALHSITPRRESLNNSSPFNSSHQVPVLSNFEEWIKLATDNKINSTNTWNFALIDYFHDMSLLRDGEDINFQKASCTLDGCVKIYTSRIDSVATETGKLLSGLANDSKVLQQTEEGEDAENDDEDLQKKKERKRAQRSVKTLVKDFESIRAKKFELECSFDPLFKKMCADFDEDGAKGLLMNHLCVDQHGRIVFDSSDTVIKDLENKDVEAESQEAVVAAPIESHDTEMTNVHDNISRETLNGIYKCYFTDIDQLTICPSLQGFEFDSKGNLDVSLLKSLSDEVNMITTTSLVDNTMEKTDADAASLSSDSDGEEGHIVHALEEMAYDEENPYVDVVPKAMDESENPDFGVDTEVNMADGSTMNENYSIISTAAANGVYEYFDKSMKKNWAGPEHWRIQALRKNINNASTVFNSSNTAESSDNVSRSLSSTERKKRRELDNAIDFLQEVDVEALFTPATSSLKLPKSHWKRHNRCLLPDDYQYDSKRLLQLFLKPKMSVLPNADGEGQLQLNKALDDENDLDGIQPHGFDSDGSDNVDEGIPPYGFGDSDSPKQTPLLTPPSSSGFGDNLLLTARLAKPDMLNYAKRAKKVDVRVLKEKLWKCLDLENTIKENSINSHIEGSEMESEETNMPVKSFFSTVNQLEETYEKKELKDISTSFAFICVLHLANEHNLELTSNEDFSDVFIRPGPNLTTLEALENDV
On to “Histone H2A-beta (Schizosaccharomyces pombe (strain ATCC 38366 / 972)) (from UniProt P04910) K14A;R19A;K22A”, for which the “effect of a mutation on the interaction” value is reported as “disrupting interaction strength”.

With “Histone H2A-beta (Schizosaccharomyces pombe (strain ATCC 38366 / 972)) (from UniProt P04910) R19A”, the “effect of a mutation on the interaction” value was “decreasing interaction”.

“Histone H2A-beta (Schizosaccharomyces pombe (strain ATCC 38366 / 972)) (from UniProt P04910) K5A;K9A;K14A;R19A;K22A”: the “effect of a mutation on the interaction” value was “disrupting interaction strength”.

(Values after IntAct's records for PubMed 21633354.)
